Experimental findings from a protein production outcome set (Wang et al. 2014) are described below.

The data set is described as follows: label from the status in PepcDB records.
In the case of “MSELIAQLLVYIKGIWKYRWASVATAWTVAIAGWFFVYQMPDNYQASARIYVDTQSILRPLMAGMTVSPNPDQQITIMSRTLISRPNVERIIRMVDLDIKITDDSAREKLVTTLMKDIKLSTTGSDNIFMISYDNKDPRLAKDIVQSLLTIFVEGGLEGKKQDSASALRFIDQQIAAYEEKLVAAEAALTAFKQKNIGFLPGQGGDYYSQLVSAAEELEKARLTLLEAEQARDAVKKQITGDEPVLLFEVGEVSPQSIVNPEIDSRIQALNTNLDNLMLNFTDQHPDVVATKRLIAQLEERKVEEAKLAGTVNNRGRNYDPMMQQLNIALAESEAQVASMKARVAEYEARFERLKSMSNTVPAVEVEMQQLNRDYNVNKANYEKLLERRASAEISGELTSTSGLMSFRIVDPPTVPEAPSGPDRKKFFTLVLIGALAGGIGFAFIISQIRPTFHSQSTLRELTGLPILGTIPMVWTEQQKLKDKRKIYAFGISLLMLMACYVVLMIYVKPHGMTAA”, the protein production result was “failed”. Next, “MMMLNPSNGGIEGEKMKKKAKVVVIMGPTGSGKSKLAVDLASHFPVEIINADAMQIYSGLDVLTNKVTVDEQKGVPHHLLGTVSSDMEFTARDFRDFTVPLIEEIVSRNHIPVLVGGTHYYIQAVVSKFLLDDAAEDTEECCADVASVVDQDMVVESVFGRDDLSHGYELLKELDPVAANRIHPNNHRKINQYLSLHASRGVLPSKLYQGKTAENWGCINASRFDYCLICMDAETAVLDRYVEQRVDAMVDAGLLDEVYDIYKPGADYTRGLRQSIGVREFEDFLKIHLSETCAGHLTSLSNDDKVMKENLRKILNFPKDDKLRIMLEEAIDRVKLNTRRLLRRQKRRVSRLETVFGWNIHYIDATEYILSKSEESWNAQVVKPASEIIRCFLETETESGRDPTSGKSIERDLWTQYVCEACGNKILRGRHEWEHHKQGRTHRKRTTRHKNSQTYKNREVQEAEVN”: “failed”; “IPGSPFTAKITDDSRRCSQVKLGSAADFLLDISETDLSSLTASIKAPSGRDEPCLLKRLPNNHIGISFIPREVGEHLVSIKKNGNHVANSPVSIMVVQSEIGD”: “not failed”; “MPFTVTIEVSKQFETSTLPEKVFALLSDVPRSASYFPDVEKLEPLGSNAFRWIMEKNAIGGHTLKQTIYACTYRSDRVTMSVAWVPVEGEGNARVEGNWQIEFAFIQKIDRYISNLKETFAK”: “failed”.

Take “MNILLAGGSGLIGQELVRGMGEEHHYTVLGRDKDAIQKIFTTKASSLSWDELNTQDASRFDAVINLCGVNIAISRWTPKIKEEIISSRVQTTENLLHWILQQNAKPRFYCANAVGIYGLQENGDATDLTEDTAINWEHPKDYLSEVGIRWQQALQKAEEAGLPVTSTRFGVVLKKGKGFLGKLYPSFICGLGSTIGDGRQYLSWIDSEDLVNAYRFLLNHPEITGPVNVTSPNPCMQREFAKAFAKSLHRPLLLWTPAFIIHLLFGEMGDCLINHGQKVKPKRLLEAGFEFKWPDIEKALKHQYSAILEHHHHHH”: the protein production result is given as “not failed”.

“MLYIFTPTFNRGYRLSYLYDSLCNQTNKNFIWLIVDDGSEDSTKEIVSNYIKENKVSIVYLYKRNGGKHSAYNLAMRYMQPSDYHVCVDSDDWLLEDAVEIIFKDLESLTLSNRYVGLVYPRYSLNQGNNWLNPKILEVNIPDLKYKYHLKIETCIVINNAYLVDFEFPCFEGENFLSEEIMYIYLSKKGYFCPQNRKIYCFDYLEDGLTSNIFKLWRKNFKGTIFSLENSYMYVMSFPNIFDRWWSAIKIKMNIQALKMTTLGVIPTLKSEEAGWKILLGFSYLWKVARFKKSELEHHHHHH”: the protein production entry is reported as “not failed”. Next, “MNTSSSFKALASPPLISTSRPTTKSFPNPRFTSRFSPKPITCMRDSLNLGSNPKAPSPFSLATVSVDAPLGTKTSDKLRILVSEFRSLTEPIDRVKRLLNYAATLAPLDESARISENRVTGCTTQVWLEIKMDEFGRMRFKADSDSEISKGFCSCLIWILDGAKPEEVMGVRSEDLSEMNVGVHGKEQSRVNTWHNVLMSMQKRTMTLVATDVAHQRGQRPPHQHDLLFKYVNGSYMESSKVHDYSISLLPLYYDFII”: “failed”. The entry for “MNEISVVLPAYNEEENIQKLVKRWQQLCKDLKYKYELSLNIFVIDDGSKDKTEVIGRELERKYDNFYLIKHDKNKGLGEAINTGIKYVMEKRSDSKYVCIMDCDNTQDPRYVFSMIEKMEKTDVVIASRYQKGSCVKGVPFFRLTASYGARFVYTIFLGVKNVRDYTCGYRLYRTSALKTAFKVFGESFIEESGFTCMVELLYKLNICGAVFKEVPFTLRYDFKGGVSKMKVLITAINSVKLTLRLKKIRKGVEPVLEDLEHHHHHH” is “failed”. In the case of “MHRLYRFCLFGMALLSSIAASAAPTDQELIAALYAKVQARQDWQAQARQCPGDNMPARAAIRATQANRCETPEQLGACLQRCEAGDGNDCYWLATTLQQAKGPAEGYEPLYQRACSLGLVSGCTNRAAGMLTADADSQGTRHCAVQTFNKACELDDPWACTMYGFHLSRGIGVAPDADLALKVLDKSCKHGPADPACSGARQLQEDIRNALEAAKR”, the protein production entry is “failed”. The entry for “MSLNHHPIIYLVDHQKDARAALSKLLSPLDVTIQCFASAESFMRQQISDDAIGMIIEAHLEDKKDSGIELLETLVKRGFHLPTIVMASSSDIPTAVRAMRASAADFIEKPFIEHVLVHDVQQIINGAKEGHHHHHH” is “not failed”; for “METKILSNATHKCVLVIDNAQPTGIVANIASVLSMTLGCRVSNIVSHDVYDKQGERHLGITQLPIPILGASQEKIKELRNYFHSLEIEDLVLVDFSTIAQQSRTYDEYEREMYSANEDDLHYVGIGICAEKKAINKATGSLSLIRLEHHHHHH” it is “failed”.

Take “MAATGVDKDRPRAMTSTTYLGLLLVGIQVLGFVAAIHAVLTVRTAQGAIAWATSLVFMPYLTLLPYLVFGRSRFDAYIEARRQANREMHLAAAELDWRPWVEEALAARQVSGYKGLKALVRMTRTPTLANNRVRLLVNGEASFEAMFKAISAARQVILVQFFIVRDDALGQRLQQLLLERAANGVEVFFLYDAIGSHALPHRYVERLRQGGVQMHGFSTGSGMLNRFQVNFRNHRKVVVVDGECGFVGGHNVGVEYLGEKPPLAPWRDTHMELRGPAVACLQESFAEDWYWATHSLPPLILPPQYDSEGALCQVVASGPADAQETCSLFFVEMINAAHERVWITSPYFVPDEAVMAALRLAVLRGVDVRLLIPSRPDHRTVYAASSLYALEAIRAGVKVFRYQPGFLHQKVVLVDRDTAAVGSANLDNRSFRLNFEVMVVTVDEGFAGEVEAMLEADFAESLEFTPEDRRSVRRLQQLGMRVARLVSPIL”: the protein production result was “failed”. Next, “MSVWRRRAEGREPTQAQRLFRGLVREWLWVSLILLPLTAVLSLSHGLALNNLFYDNLRRFTPLPVDPRILLVTIDDYSLQQLGRWPWPRAIHGQLLDRLSAAEAKGVLFDVILSEPGSTVENDTRLAAALCRAGNVFLPVLRQGVARYGQDIEEIPPVPLLRNCARGLGHINAEADADGTVRSVYLREGPMLAPRAQLTWLLYQLTEAEPAFPHMPGPGEPRVAQGWLRSNPVRIPFISADAGFPSVPYVSVLRGEVPPELLRDRLILVGSTAPGLGDRYVTPQSGSQGTTPGVEIQANLLNGLLQHRSVVALGQWSGMLLSMALTAVLLGLLLWRPRHALWITLGCMGLGLAGSVLMLRLGYWWSPVASLLGMLLAYLIWNWRRLSVILAYFGWELARLDSEPKVLPERRRSQAPAGDVLQGQIVALEQALSRTRDTRRFIADGLEYLPVATLISDPDGKILLANRNAREVFAHSLVGEGLIAQLAALGYPGLTEPALYPRLEQLPAVEFRDVQQRSLRMELAPLLPVDSDTAIGWLLSLTDLSVERDAEQQRSVLLRFLSHDLRAPHSAILALLDVQRHQPATPRQVYGQIEQQVRRALALTEAFVQLAKAESEAYQFEPSMFAMLVLDAFDQATTLAQLKDIHLEHDLDDEAEGLVLADQSLLTRALFNLLENAIKYSPVESRVSVRVSCTPGWLRCEISDEGRGIDAADLPQLFGQYQRFASAKGIDGLGLGLSMVKAVVDRHQGRISCQSVVGRGSCFILELPLLEE”: “failed”; “EEELPFKVLGDGSYLFEGKTSLSDVRHYLDLPENAFGELGDEVDTLSGLFLEIKQELPHVGDTAVYEPFRFQVTQMDKRRIIEIKIFPFE”: “not failed”; “MPHPNRTFKIVIAPDSFKSTATTSQAAAFIAEGIQAAVQSNECEGINVEITTVPMADGGEGTSSCFEGIDITLPTTDANGRLTEATYRFDPQSETAYIDVAAASGLPAVEDELRPLTADTYGTGVLIADAQTRGARR”: “not failed”.

For the sequence “MENFFNQFFESIGEDKNREGLKETPKRVQELWKFLYKGYKEDPRVALKSAYFQGVCDEMIVAQNIEFYSTCEHHLLPFLGNISVGYIPKEKIVGISAIAKLIEIYSRRLQIQERLTIQIAETFDEIIEPRGVIVVCEAKHLCMSMQGVQKQNAIIKTSVLRGLFKKDSKTRAEFMQLLKS”, the protein production entry is on record as “failed”.

As to “MLDRVIYSLIQTENKSVVNELFFRIAEGEDSFAELARKYSQGAEADRGGIIGPVELGSITPNFAQLLYTSQVGVVQPPVAFGNTWVIVRVEKLIPAQLEHHHHHH”, the protein production result was “failed”. The entry for “MDKESTKWIRFLGGKNLLYTLTILCLIAVTIFLFNTVSFIFKPIFVIFSAVLGPVLFGIILFYLLNPMVKRLEKKIPRVWAIAILYVLIIALLVLAGLQLFPIIQDQTEELIKQFPSFWKSTLQTVQEFMAKTPFAKDLESANESINQLWGKLANSFKDFAGDYLQTGAQGLGSVFSAVSSTFLTLFTGPIIAFFLLKDKEKFYRFVKGIIPPAFRPDFDEYSQIANIQIGDYLKGQVIASLVLGIMYWPAFLLIGLQFGSILALAAGILCIIPYIGPFIAFIPGLIIAFQDSTFMVVKFVIVWFAIQLIHGDFVIPRVMGDKLKVHPITILLVLLVMGELFGLMGVIFGIPMYCLVKVTVIYLFRKFKQRYNRFYGDNGEYEHTNFTKDQYLK” is “failed”; for “MLPAEYNVLVDYTGASTFTTFFFLLFFYVLDCYNVGHEDVRDSIARVSVASVLGIIFTGFTFYSFEHWRFERTTFVVLLLLVVGMTLLWRMVYHRFGQRFTTRPRVVLVGVDRAGRVRKLLNEGMPEAEILGYVGEGDVDPDAGPCLGAPYEPVEIARRYGATMLVMLPDAPVDEDIARDLLDAKLRGLMVVDIRTLYEHVAKRIPVDQIRDEWLLTEDGFNLNTQGSVRRLKRAFDVIVSLSLLITTAPIMLVAAIAIRMESPGPVIYRQKRVGINEQEFMVLKFRSMRTDAEKDGAVWATKGDSRVTRVGRFIRKVRIDELPQLWNVLRGDMSMIGPRPERMEFVRQLEKVIPYFYVRHSVKPGITGWAQVCYPYGASVEDARYKLEYDLYYIKNMSPLLDIQIVLKTVGVILFPKGAR” it is “failed”.

With “MARRKRRNFSKQASEILNEYFYSHLSNPYPSEEAKEELARKCGITVAQVSNWFGNKRIRYKKNIGKAQEEANLYAAKKAAGASP”, the protein production result was “not failed”. As to “MTQPVPVHYTLRPVSPEAHLFEATVTISHPAKDGQVFFLPAWIPGSYMIREFSKHIVGMAASAGGKPVALRQLEKNRWQAAPAKGALTLRYQVYAFDLSVRGAYLDGERGFFNGTSVFLAAEGYEGEACTVDIHAPEGKAYAEWKVATSLPAEDVKKKTGFGRYRAADYDELIDHPVEMGDFKKVSFKACGVPHEFVVSGRFQGELKRLAEDTRKICECQIKLFGEPAPFDRYVFMLFVGKDIYGGLEHRASTALVANRDDLPAPGAAEIGDGYLKLLGLISHEYFHSWNVKRMKPAAFTPYDLNREGMTRLLWAFEGITSYYDDLTLVRCGLIDEKRYLGLLAETITGVQRGAGRLKQTLEQSSFEAWTKYYRQDENSPNSIVSYYTKGSLAALALDLLIRRDSKGKQSLDDVMRALWAKWLADGKGLEEGEWEKIAIETTGLKLKPFFDLALRSTGELPLAELLKSQGVELKFEAAQGASDRGGVVDAFAGKPAPLTLGVKTAADAAGVKLLQVLDGGAAQAAGLSGGDVVVAVDKLRAYDLDKQIARFAAGDKIKLHAFRRDELMTFEVAPQAAPEDTCRLKLDAGGGKWIAGRLEHHHHHH”, the protein production entry is given as “failed”.
